From patent US20050196808A1 (published 2005) come the findings set out here.

Non-standard residues stand in square brackets, D forms with d. No end group written: not given here. pY = N[C@@H](Cc1ccc(OP(=O)(O)O)cc1)C(=O)O; pT = C[C@@H](OP(=O)(O)O)[C@H](N)C(=O)O

The target in test [1] is PoloBoxtide with Asn substituted for Pro at pThr+1. The test is described as follows: ITC. (ITC needs no label: the signal is the heat of the interaction.)
The target in test [2] is PoloBoxtide with phosphoserine substituted for phosphothreonine. The test is described as follows: ITC.
The target in test [3] is PoloBoxtide-optimal, MAGPMQ-S-pT-P-LNGAKK. As to the kind of experiment: isothermal titration calorimetry (ITC), peptide injected into 15 µM PBD.
Test [4] concerns the target BRCTtide-7pS, GAAYDI-pS-…. As to the kind of experiment: ITC, peptide injected into 15 µM GST-(BRCT)2.
For test [5], the target named is BRCTtide-7pT, GAAYDI-pT-…. As to the kind of experiment: ITC, peptide injected into 15 µM GST-(BRCT)2.
In test [6] the target is Plk-1 Polo-box Domain (PBD, residues 326-603) (human) (UniProt P53350). The test is described as follows: isothermal titration calorimetry [table].
The target is the same in test [7]. The test is described as follows: isothermal titration calorimetry.
The target in test [8] is T1, Cdc25C, mitotically phosphorylated (up-shifted) form, endogenous in nocodazole-arrested HeLa cells (human, UniProt P30307 1-473, limits assumed, extensively phosphorylated at the N-terminus in mitosis, including phosphothreonine at 130).
T1 construct: also called mitotically up-shifted form of Cdc25C; mitotically phosphorylated Cdc25C
T1 sequence (looked up): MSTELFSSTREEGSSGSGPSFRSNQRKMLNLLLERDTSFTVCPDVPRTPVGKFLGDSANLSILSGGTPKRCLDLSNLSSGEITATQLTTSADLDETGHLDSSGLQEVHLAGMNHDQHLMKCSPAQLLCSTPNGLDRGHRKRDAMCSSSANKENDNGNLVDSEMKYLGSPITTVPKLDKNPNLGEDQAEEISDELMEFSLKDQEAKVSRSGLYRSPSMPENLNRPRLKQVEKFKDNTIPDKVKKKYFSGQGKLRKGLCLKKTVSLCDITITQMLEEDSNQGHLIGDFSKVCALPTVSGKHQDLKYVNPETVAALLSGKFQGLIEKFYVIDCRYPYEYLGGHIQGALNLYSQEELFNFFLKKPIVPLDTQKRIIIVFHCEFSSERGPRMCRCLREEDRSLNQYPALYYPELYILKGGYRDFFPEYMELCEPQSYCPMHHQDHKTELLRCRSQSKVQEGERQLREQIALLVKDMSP
The test is described as follows: Ni2+ bead pull-down from nocodazole-arrested transfected HeLa cells, blot α-Cdc25.

For test [9], the target named is T2, Plk-1 Polo-box Domain (PBD, residues 326-603) (human, UniProt P53350 326-603).
T2 construct: also called Plk-1 PBD; Plk1 PBD
As to the kind of experiment: isothermal titration calorimetry [table]. How it is done: (§1) Some peptides contained an additional tyrosine residue to facilitate concentration determination by optical absorbance. Calorimetry measurements were performed using a VP-ITC microcalorimeter (MicroCal Inc., Studio City, Calif.). […] Thirty injections were performed with a spacing of 240 s and a reference power of 25 μCal/s. Binding isotherms were plotted and analyzed using Origin Software (MicroCal Inc. Studio City, Calif.).

Test [10] addresses T2, Plk-1 Polo-box Domain (PBD, residues …). As to the kind of experiment: isothermal titration calorimetry [ITC panels]. The method, then: as §1

As usually defined, the Kd is the concentration at which binding is half-saturated. In [1], “Plk-1 Polo-box Domain (PBD, residues 326-603) (from UniProt P53350 326-603)” gave a fold increase in Kd against PoloBoxtide-optimal greater than 5 fold. In test [2], this molecule registered a fold drop in affinity against PoloBoxtide-optimal of 7 fold. For the same molecule, in test [3], the Kd is 280 nM. Take “GST-PTIP tandem BRCT domains (residues 550-757) (from UniProt Q6ZW49 862-1069)”: the Kd in test [4] is 280 nM; in test [5], 14300 nM. In the case of “PoloBoxtide with phosphoserine substituted for phosphothreonine (peptide)”, the Kd in test [6] turned out to be 2100 nM. Turning to “PoloBoxtide-optimal, MAGPMQ-S-pT-P-LNGAKK (peptide)”, the Kd in [7] and in test [6] was 280 nM in each case. Molecule “PoloBoxtide with Asn substituted for Pro at pThr+1 (peptide)” displayed a Kd in test [6] of 1500 nM. In the case of “GST-BRCA1 tandem BRCT domains (residues 1634-1863) (from UniProt P38398 1634-1863)”, in test [4], the Kd is 400 nM.

B1: His-Xpress-tagged control Plk1 PBD construct lacking the second Polo-box (residues 326-506) (other)
chain: SIAPSSLDPSNRKPLTVLNKGLENPLPERPREKEEPVVRETGEVVDCHLSDMLQQLHSVNASKPSERGLVRQEEAEDPACIPIFWVSKWVDYSDKYGLGYQLCDNSVGVLFNDSTRLILYNDGDSLQYIERDGTESYLTVSSHPNSLMKKITLLKYFRNYMSEHLLKAGANITPREGDELA
notes: not shown: His-Xpress tag
As for B1, the binding result in test [8] is listed as “no binding”. On to MAGPMQA[pT]PLNGAKK [PoloBoxtide with Ser at pThr-1 replaced with Ala], for which the binding result in test [9] is listed as “no binding (tested: 150 µM Plk-1 PBD)”. As for MAGPMQG[pT]PLNGAKK [PoloBoxtide with Ser at pThr-1 replaced with Gly], the binding result in test [9] is given as “no binding (tested: 150 µM Plk-1 PBD)”. Take MAGPMQS[pY]PLNGAKK (built from the optimal peptide) [PoloBoxtide with phosphotyrosine substituted for phosphothreonine]: the binding result in [9] was “no binding (tested: 150 µM Plk-1 PBD)”.

B2: PoloBoxtide-7V (peptide)
peptide: MAGPMQV[pT]PLNGAKK
notes: also called phosphopeptide whose serine at pThr-1 was mutated to valine
In the case of B2, the binding result in test [10] was “no binding (tested: molar ratio about 2.7)”. As for MAGPMQC[pT]PLNGAKK [PoloBoxtide with Ser at pThr-1 replaced with Cys], in test [9], the binding result was “no binding (tested: 150 µM Plk-1 PBD)”.

As for MAGPMQT[pT]PLNGAKK [PoloBoxtide with Ser at pThr-1 replaced with Thr], the binding result in [9] is reported as “no binding (tested: 150 µM Plk-1 PBD)”.
